This is an account of results in the nanobody polyreactivity screen of Harvey et al. (2022).

This data set in a line: yeast display, Sf9 membrane polyspecificity reagent, FACS + sequencing; frameworks hold sequencing errors. An outline of the steps: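 In a synthetic yeast display library (Saccharomyces cerevisiae BJ5465), nanobody expression was induced with galactose for 36–48 hours. FACS gates were set low and high (top ~1%) using anti-HA fluorescence for expression and streptavidin fluorescence for binding of the Sf9 membrane reagent. Each polyreactivity label is drawn from the gate of origin.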
Take “QVQLVESGGGLVQAGGSLRLSCAASGSTFNFYAMGWYRQAPGKEREFVAAITSSGDSTYYADSVKGRFTISRDNAKNTVYLQLNSLKPEDTAVYYCAARLRWRYSYDYWGQGTQVTVSS”: the “polyreactivity (PSR sort gate)” value is listed as “high polyreactivity”.
For “QVQLEESGVGLVQAGGSLRLSCPASGRIIYRNAIVWYSQAPGKERELVAAITGSGGITYYADSVKGRFTISRDNAKNTVYLLMNSLKPEVTAVYYCAARAKFLSVPTYDNWGQGTQVTVSS” the value was “high polyreactivity”; for “QVQLVESGGGLVQAGGSLRLSCAASGSTFPFYAMGWYRQAPGKERELVAAIRYTGNTYYADSVKGRFTISRDNAKNTVFLLMISLKPEDTAVYYCAADADYWAYGYWGHGTQVTVSS”, “low polyreactivity”.
For “QVQIVESGGGLVQAGGSLSLSCAASGFTLVGYAMGWYRQAPGKERELVAAISSGGRTKYADSVKGRFTISRDNAKNTVYLQMNSLKPEVTAVFYCAAPYNVRWRYGYWGQGTQVTVSS”, the “polyreactivity (PSR sort gate)” value is listed as “high polyreactivity”.
As for “QVQLVESGGGLVQAGGSLRLSCAASGSIFVGYAMGWYRQAPGKERELVAAITFRGGSTYYADSVKGRFTISRDNAKNTVYLQMNSLKPEDTAVYYCNRVVRLRRPAQYNYWGQGTQVTVSS”, the “polyreactivity (PSR sort gate)” value was “high polyreactivity”.
For “QVQLVESGGGLVQAGGSLRLTWAATGSIFRTNAMGSYRPAPGKERELVAAITGSGGSTYYADSVKGRFTISRYNAKNTVYLQMNCLKPEETAVYYCAAEFGSFVSPYNYYYWGQGTQVTVSS” the value was “low polyreactivity”; for “QVQLVESGGGLVQAGGSLRLSCAASGSIFRYNAMGWYRQAPGKEREFVAAITRSGGSTYADSVKGRFTISRDNAKNTVYLQMNSLKPEDTAVYYCAATFKWYSHTKPRFDYWGQGTQVTVSS”, “low polyreactivity”.
With “QVQLVESGGGLVQAGGSLRLSFAASGSIFYVYAMGWYRQAPGKERELVAAITWSGGSTYYADSVKGRFTLSRDNAKNTVYLQMNSLKPEDTAVYYCAADEGYDYPYYYWGQGTQVTVSS”, the “polyreactivity (PSR sort gate)” value is given as “high polyreactivity”.
As for “QVQLVESGGGLVQAGGSLRLSCAASGNTLRYNVMGWYRQAPGKERELVAAISGGGSTSYTDSVKGRLTISRDNAKNTVYLQMNSLKPEDTAVYYCATRSFVGGRGRDSDYWGQGTQVTVSS”, the “polyreactivity (PSR sort gate)” value was “low polyreactivity”.
As for “QVQLVESGGGLVQAGGSLRLSCAASGSIDSKYTMGWYRQAPGKERELVAAIRGSGVRTYYADSVKGRFTISRDNAKNTVYLQMNSLKPEDTAVYYCAKVVYRGKVALWISSTAGSDYWGQGTQVTVSS”, the entry is “low polyreactivity”; as for “QVQLQESGGGLVQAGGSLRLSCAASGSIFYVYGMGWYRLAPGKVRELVAGINAGTNTNYADSVRGRFTISRDNAKNTVHLQMTSLNPEETAVYYCAADGNGYQAHEYWGQGTQVTVSS”, “high polyreactivity”; as for “QVQLVESGGGLVQAGGSLRLSSAASGRILPVNTMGWYRQAPGKERELVAVITRSGGRTYYADSVKGRFTISRDNAKNTVYLQMNSLKPEDTAVYYCAADVGFRWYRYTAGPLEYDYWGQGTQVTVSS”, “high polyreactivity”.
As for “QVQLVESGGGLVQAGGSLRLSCAASGRIFAYNTMGWSRQAPGKERELVAVITSGGSTNYADSVKGRFTISRDNAKNTVYLQMNSLKPEDTAVYYCAKRPYCRSGGSRYDYWGQGTQVTVSS”, the entry is “high polyreactivity”; as for “QVQLVESGGGLVQAGGSLRLSCAASGRIYPVYAMGWYRPAPGKERELVAAITSGVSTNYADSVKGRFTISRDNAKNTVYLQMNSLKPEDTAVYYCNKDYTTYPYYEDGYWGLGTQVTVSS”, “low polyreactivity”.
For “QVQLVESGGGLVQAGGSLRLSCAASGRTFPYYTMGWYRQAPGKERELVAAIDGSGDNTYYADSVKGRFTISRDYAKNTVYLQMNSLKPEDTAVYYCTAEQWGSLDYWGQGTQVTVSA” the value was “low polyreactivity”; for “QVQLVESGGGLVQAGGSLRLSCAASVSTFQGYSMGWYRQAPGKERELVAAITTDGDSTYYADSVKGRFTISRDNAKNTVYLQMNSLKPEDTAVYYCAADQDGRWEGSSDPGDSWGQGTQVTVSS”, “low polyreactivity”.
As to “QVQLVESGGGLVQAGGSLRLSCAASGGTFRLYTMGWYRQAPGKERELVAGISSSSGSTYYADSVKGRFTISRDNAKNTVYLQMNILKPEDTAVYYCAAYWPRSRYDYWGQGTQVTVSS”, the “polyreactivity (PSR sort gate)” value was “high polyreactivity”.
With “QDQLVESGGGLVQAGGSLRLRCAASGFIFRYYAMGWYRQAPGKERELVAAIDYSGGSTNYADSVKRRFTISRDNAKNTVYLQMNSLKPEDTAVYYCNAEYTWHRGYDYWGQGTQVTVSS”, the “polyreactivity (PSR sort gate)” value is “low polyreactivity”.
In the case of “QVQLVESWGGLVQAGGSLRLSCAASGFTFDYNGMGWYRQAPWKERELVAGIRWSGGSTYYADSVKGRFTISRDNAKNTVSLQMNSLKPEDTAFYYCAADTLPAEYEYDYWGQGTQVTVSS”, the “polyreactivity (PSR sort gate)” value is reported as “low polyreactivity”.
For “QVQLVESGGGLVQAGGSLRLSCAASGFTFAVYAMGWSRQAAAKERELVAAISRSGTRTYYADSVKGRFTISRDNGKNTVYLQMNSLKPEDTAVYYFAAEVPDTDAYGYWGQGTQVTVSS” the value was “low polyreactivity”; for “QVQLEESGGGLVQAGGSLRLSCAASGSTFSTYSMAWYRHAPGKERELVARITRSDTGTYYADSVKGRFTISRDYAKNTVYLQLNSLKPEDTAVYDCAADGWYDDSGWDYGYDYWGQGTQVTVSS”, “low polyreactivity”.
“QVQLVESGGGLVQAGGSLRLTCAASGIIFKLYAMGWYRQAPGKEREFVATITKTGGRTYYADSVKGRFTISRDNAKNTVYLQMNSLKPEDTAVDYCAARRVNGKMYYWGQGTQVTVSS”: the “polyreactivity (PSR sort gate)” value was “high polyreactivity”.
Regarding “QVQLVESGRGIVQAGGSLRISWAASGITLAGYVMGLYRQAPGKESELVADISSSGDSTYYADSVKGRFTMSRDNAKNTVYLQMNSLKPEDTAVYYCAAKCGRTGSFDYWGQGTQVTVSS”, the “polyreactivity (PSR sort gate)” value is listed as “low polyreactivity”.
Consider “QVQLVESGGGLVQAGGSLRLSCAASGYIFSLYAMGWYRQAPGKERELLADITTSAGSTYYADSVKGRFTISRDNAKNTVYLQMISLKPEDTAVYYCAAAVYGHSYYDYDYWGLGTQVTVSS”, for which the “polyreactivity (PSR sort gate)” value was “low polyreactivity”.
Take “QVQLVESGGGLVQAGGSLRLSCADSGNIFYKNTMGWYRQAPGKERELVAAISVSGGGTYYADSVKGRFTISRDNAKNTVYLQMNSLKPEDTAVYYCAATWRQHPGSMGYWGLGTQVTVSS”: the “polyreactivity (PSR sort gate)” value is recorded as “high polyreactivity”.
As for “QVQLVESGGGLVQAGGILRLSCAASGRTFGLYAMGWYRQAPGKERELVAAISWGGGRTYYADSVKGRFTISRDNAKNTVDLQMNSVKPEYTAVYYCNAVYSPRYYVGGYDYWGQGTHVTVSS”, the “polyreactivity (PSR sort gate)” value is listed as “high polyreactivity”.
As for “QVQLVESGGGLVQAGGSLRLSCAASGSIFRTYAMGWYIQAPGKERELVAAIRRSGGRTYYADSVKGRFTISRDNAKNTVYLQMNSLKPEDTAVYYCNKRVSKQSKYDYWGQGTQVTVSS”, the entry is “high polyreactivity”; as for “QVKLVESGGGLVQAGGSLRLSCAASGSIFSRNTMGWSRQEPGKERELVAGISSSGSRTYYADSVKGRFTISRDNAKNTVYLQMNSLKPEDTAVYYCAKAWPDHWYSRYDYWGQGTQLTVSS”, “low polyreactivity”; as for “QVQLVESVGGLVQAGGSLRLSSSASGSNCVLNAIGWYRQAPGKEWELVAAITKVGSTYYADSVKGRFTISRDNAKNTVYLQMNSLIPEDTAVYYCNADPGEVLVGYDYWGQGTQVTVSS”, “low polyreactivity”.
As for “QVQLVESGGGLVQAGGSLRLSCAASGYAMGWYRQAPGKERELVAAISWSGDITYADSVKGRFTISRDNAKNTVYLQMNRLKPEDTAVYYCNADRYTGRDGEQSLDYWGQGTQVTVSS”, the entry is “low polyreactivity”.
